According to patent publication EP4477666A1 (Max-Planck-Gesellschaft zur Förderung der Wissenschaften …, dated 2024):

T1: human Nup358 (human, UniProt P49792 1-145)
T1 construct: The stainings were on whole NPCs of HeLa cells
T1 sequence (looked up): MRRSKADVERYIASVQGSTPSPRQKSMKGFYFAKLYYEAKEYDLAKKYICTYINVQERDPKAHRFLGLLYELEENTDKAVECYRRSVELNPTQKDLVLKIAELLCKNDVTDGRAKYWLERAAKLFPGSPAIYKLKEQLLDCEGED

T2: human Nup133 β-propeller (human, UniProt Q8WUM0 67-514, limits assumed)
T2 construct: domain: β-propeller; also called human Nup133 beta propeller; human propeller
T2 sequence (looked up): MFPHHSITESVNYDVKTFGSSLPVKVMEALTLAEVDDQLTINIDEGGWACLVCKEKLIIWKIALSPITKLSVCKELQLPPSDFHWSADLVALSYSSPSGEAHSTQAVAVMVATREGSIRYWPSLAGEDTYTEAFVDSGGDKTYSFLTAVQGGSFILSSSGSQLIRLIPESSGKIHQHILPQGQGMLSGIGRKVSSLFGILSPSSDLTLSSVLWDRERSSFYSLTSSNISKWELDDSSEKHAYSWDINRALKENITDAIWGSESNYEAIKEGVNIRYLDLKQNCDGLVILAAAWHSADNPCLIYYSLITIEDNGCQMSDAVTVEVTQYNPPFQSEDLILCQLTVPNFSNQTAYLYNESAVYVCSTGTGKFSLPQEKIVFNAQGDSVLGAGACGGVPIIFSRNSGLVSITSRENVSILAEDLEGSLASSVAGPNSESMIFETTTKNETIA

T3: human Nup133 in nuclear pore complexes of HeLa cells (human, UniProt Q8WUM0 1-1156)
T3 construct: whole, on cells; Endogenous protein inside permeabilized HeLa cells, as part of assembled NPCs; not on the cell surface; also called human NPCs
T3 sequence (looked up): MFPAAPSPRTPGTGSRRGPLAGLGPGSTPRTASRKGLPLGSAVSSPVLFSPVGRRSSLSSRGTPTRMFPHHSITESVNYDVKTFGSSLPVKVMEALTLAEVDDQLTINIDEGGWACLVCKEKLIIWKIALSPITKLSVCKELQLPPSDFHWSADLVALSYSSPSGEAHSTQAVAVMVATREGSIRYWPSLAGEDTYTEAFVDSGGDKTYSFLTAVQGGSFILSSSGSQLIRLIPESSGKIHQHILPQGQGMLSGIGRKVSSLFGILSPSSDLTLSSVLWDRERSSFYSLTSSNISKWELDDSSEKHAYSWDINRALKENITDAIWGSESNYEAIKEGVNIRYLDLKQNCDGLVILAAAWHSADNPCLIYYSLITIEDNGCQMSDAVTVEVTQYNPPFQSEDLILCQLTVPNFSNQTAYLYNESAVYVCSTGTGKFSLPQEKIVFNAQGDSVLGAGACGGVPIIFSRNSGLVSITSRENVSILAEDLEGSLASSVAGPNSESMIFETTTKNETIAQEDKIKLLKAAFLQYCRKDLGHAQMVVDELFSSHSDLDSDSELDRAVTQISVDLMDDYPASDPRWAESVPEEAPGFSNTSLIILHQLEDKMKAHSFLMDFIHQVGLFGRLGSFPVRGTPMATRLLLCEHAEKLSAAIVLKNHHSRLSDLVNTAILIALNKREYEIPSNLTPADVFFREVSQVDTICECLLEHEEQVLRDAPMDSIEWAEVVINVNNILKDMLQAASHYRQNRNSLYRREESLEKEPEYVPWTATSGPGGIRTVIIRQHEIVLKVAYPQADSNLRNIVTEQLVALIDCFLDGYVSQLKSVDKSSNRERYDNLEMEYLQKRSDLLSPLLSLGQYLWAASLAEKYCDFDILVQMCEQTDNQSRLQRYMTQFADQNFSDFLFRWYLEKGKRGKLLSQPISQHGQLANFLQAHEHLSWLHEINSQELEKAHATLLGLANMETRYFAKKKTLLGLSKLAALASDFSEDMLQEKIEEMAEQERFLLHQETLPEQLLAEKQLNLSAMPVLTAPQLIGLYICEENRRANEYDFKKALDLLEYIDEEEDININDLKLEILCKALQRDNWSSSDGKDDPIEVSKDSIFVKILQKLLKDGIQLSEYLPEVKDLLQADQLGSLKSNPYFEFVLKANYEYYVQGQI

B1: xhNup358-Nb2t (VHH)
VHH: QVQLVESGGGLVQPGGSLRLSCAASGRPLSDYAMGWFRQAPGKEREFVAAISWKGGETFYAGSVKGRFTISRDDAKNSLYLQMNNLKLEDTAEYSCAAVLGSPHYSGTHYYPAEYDYWGQGTQVTVSS
notes: For staining the VHHs carried two ectopic cysteines (N- and C-termini) labelled with fluorophore maleimide
B2: KG1D08, biotinylated, reduced form (structural cysteines not disulfide-bonded) (VHH)
VHH: QVQLVESGGGLVQAGGSLRLSCAASGRSFRGNIMAWFRQTPGKERLFVASITGSGYTSYENSVKGRFTISRDSARDTVDLQMTTLAPEDTAVYYCAGRFRGGHNRMPDAYEYWGQGTQVTVSS
modifications: Biotin-PEG11-maleimide on the two additional cysteines at N- and C-terminus; structural cysteines reduced ; Two additional ectopic cysteines at the N- and C-terminus, not in the letters, each carry Biotin-PEG11-maleimide. Struct [CUT]
notes: Expressed in the cytoplasm of E. coli NEB Express; also called reduced KG1D08; not shown: The short N- and C-terminal extensions that carry the two ectopic, biotinylated cysteines
B3: KG1D08 (VHH)
VHH: B2 VHH
notes: also called anti-Nup133 VHH KG1D08
B4: KG1D08, biotinylated, post-production disulfide-bridged form (VHH)
VHH: B2 VHH
modifications: Biotin-PEG11-maleimide on the two additional cysteines at N- and C-terminus; structural cysteines quantitatively oxidized to the intramolecular disulfide bond ; Two additional ectopic cysteines at the N- and C-terminus, not in the letters, each carry Biotin-PEG11-maleimide. Struct [CUT]
notes: Same preparation as the reduced form, then treated with 2 mM GSSG and 1.5 µM each DsbA, DsbC, DsbG for 5 minutes at 52°C (45 minutes heat up); also called KG1D08 with post-production disulfide-bonding; disulfide-stabilized VHH; not shown: The short N- and C-terminal extensions that carry the two ectopic, biotinylated cysteines

Assays:
human Nup358 = molecular target: T1, human Nup358; assay: Table 1, target and cross-reactivity (immunofluorescence, Figure 1)
[1] = molecular target: T4, Xenopus Nup133 β-propeller (Xenopus); assay: BLI (Octet Red96), biotinylated VHH on streptavidin sensors, 40 nM propeller in solution
T4 construct: domain: β-propeller; also called Xenopus Nup133 beta propeller; Xenopus propeller

human Nup133 β-propeller = molecular target: T2, human Nup133 β-propeller; assay: as above
[2] = molecular target: T3, human Nup133 in nuclear pore complexes …; assay: immunofluorescence of HeLa cells with fluorophore-labelled VHH (Figures 1 and 2)

| Binder | binding result (human Nup358) | Kd [1] [nM] | Kd (human Nup133 β-propeller) [nM] | binding result [2] |
| --- | --- | --- | --- | --- |
| B1 | binds |  |  |  |
| B2 |  | < 0.01 | ~2 |  |
| B3 |  |  |  | binds |
| B4 |  | < 0.01 | ~2 |  |
